Reference: the supplement of paper PMC12042874
± gives the uncertainty stated by the source.

assay: amyloid nucleation score (Sup35N fusion, yeast selection) (log enrichment); library NNK3; higher = more nucleation; inactive = no reads after selection
In short: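 The nucleation score, computed with DiMSum, is the log enrichment of output over input reads, centred on the mode score of non-aggregating sequences. Sequences with under 100 input reads were dropped. Reads were generated by Illumina sequencing of plasmid inserts from psi-negative yeast with Sup35N fused to peptides of 20 random codons, induced with 100 μM copper sulfate for 24 hours and grown 7 days at 30°C on medium lacking adenine and uracil.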

Substance | amyloid nucleation score
GHSEYLA | inactive
GHTANLTYALFMGDFSRAGI | inactive
GHVSHYVVVLHLTSIGSCGL | 0.696 ± 0.23
GHWSEKSDGTNKSYVVRSGM | inactive
GIAGCKSRSCLLPYCNWVSV | inactive
GIANRAFITDGGWGLFISTY | inactive
GICHTFDAGTVFFLFGSWFI | inactive
GIGIFSCLKSSVLCLIYLSR | -0.113 ± 0.31
GIHHFF | inactive
GIIHDVMDTTNGKIVSS | inactive
GIKVLTTCGHKKFVGINSVM | inactive
GILFNK | inactive
GIRCSLVY | inactive
GIRLIECS | inactive
GKFVRLPPISRISHLWNCEL | inactive
GKPWCNYSDYFYCTLLVDCK | -0.246 ± 0.82
GKQIRSNR | inactive
GKVVVN | inactive
GLCWRMLTFLWSFVSMENNG | -0.565 ± 1.1
GLFCPVYS | inactive
GLFMRFTRWCRGKHVTMVP | inactive
GLFRGYGVTLVRRLWSRIMY | inactive
GLGYFPIWASLRTKLVLILG | inactive
GLHLIFFSYHRWHVTLK | inactive
GLLANWYVQH | inactive
GLLSPRTGCD | inactive
GLMRDCTTAMIGENDAFWSD | inactive

Substance | amyloid nucleation score
GLPSFRHSF | inactive
GLRFPMRWDCGVRVNYRKSR | inactive
GLRLFYAHRYAC | inactive
GLRNHCPSFLLWASTARGTL | -0.976 ± 2.5
GLSRCSPWKASSDDRRRLSD | inactive
GLTTLCSVPKQYVKYFVVTH | inactive
GLVVKSKYMRRFPGTR | inactive
GMCVGDLEAQTSEGTSNESW | inactive
GMFCNGINTNYVPVYYYRSV | 1.27 ± 0.17
GMMICMISWWVWNFACVDIR | inactive
GMNKLL | inactive
GMRFRLMEKFHRLFYYSNMT | inactive
GMVNDYVVTVNFPCFWLG | 2.19 ± 0.079
GNNPLVVKNLNRKCL | -0.357 ± 0.51
GNQAYTVTGGSETVCSDNGC | inactive
GNRLALVYLGRILPL | inactive
GNTVEGKLE | inactive
GNVDVAHCDWCKGSTCMLN | 2.64 ± 0.084
GPHNFGEMSGFVDGTRRSGV | inactive
GPNLLWDRGGPVNSCASKEA | inactive
GQDWIAV | inactive
GQKCHLGCAFGCDEYTWAKG | inactive
GQSVMQSAMGSISKFE | inactive
GQYPEYYWYLGTEFFTVVLF | inactive
GRIGTVGWGISLHYVYTDRA | 0.547 ± 0.2
GRIVMHVICNIFNCNYFGNS | 2.94 ± 0.072
GRKKVVTWQLLARQP | inactive

Substance | amyloid nucleation score
GRLALSTRQHLV | inactive
GRLLMFASDLLNSPRMCWTE | -0.687 ± 1.8
GRLNVLRRRPVGRTKRCSKV | inactive
GRWLV | inactive
GRYFSRNYAMCLLLFTTGEV | inactive
GRYLSANLVVKSGCR | inactive
GSALVLCELGSVAKSLSGNL | inactive
GSATSFAFFIVFLSD | 1.51 ± 0.096
GSCKVADAPCSHARR | -0.331 ± 1.3
GSDVFTFRWGNMLRTCTTGR | inactive
GSFTASFDGFQGSIMVERGG | inactive
GSGLPLTALRSTYVAAPHSE | inactive
GSGTGNALLQLGLTSIFTFS | inactive
GSICLRQGPSVMVLRMWLCD | inactive
GSISLASWVVYSIAIR | inactive
GSKDYQPSYIPWYNFACFKG | -0.594 ± 0.96
GSMMLWCFIDSSWDLSLRK | 0.884 ± 0.19
GSRCCNSAFNKECLSITEHS | -0.485 ± 0.8
GSRIGGVL | inactive
GSRVN | -0.352 ± 0.36
GSSAPKWVWNWFVPYGKRQG | 1.3 ± 0.089
GSSRCNGRLWSAG | inactive
GSSSSVYWFLDGCDTLKRHM | inactive
GSSWCLTLWLKNSLATVQTQ | inactive
GSVGTNCSGFVAPELRSPRC | inactive
GSYRWAVGGKDWGHWDRCLA | inactive
